Data set [1] is classed as in vitro ADME, human. As to the method:
The in vitro and in vivo stability of [^18F]AlF-NOTA-QHY-04 were evaluated by radio-HPLC to examine the RCP after different incubation periods. The binding affinity of the unlabeled precursor to CXCR4 was measured using the biolayer interferometry Octet Red96 system (PALL ForteBio, USA). The details are supplied in the supplemental materials.
Synthesis of [18F]AlF-NOTA-QHY-04
Briefly, NOTA-QHY-04 was radiolabeled with [18F]F-, following procedures. 10-20 […]
GBq [18F]F− produced by medical cyclotron (MINITRACE Cyclotron, GE, USA) was […]
captured with a QMA SepPak light cartridge (Waters Corporation, USA) and then eluted […]
with 300-500 μL saline (0.9% NaCl). Then, the saline containing [18F]F− was added to […]
The partition coefficient (logD) of [18F]AlF-NOTA-QHY-04 was determined in a […]
from each phase were measured for radioactivity using a γ-counter. […]
repeated three times to ensure the accuracy of the results. The logD was calculated by […]
dividing the average radioactivity in the 1 -octanol layer by that in the PBS layer, and the […]
human serum albumin solution were evaluated by radio-HPLC to examine the radiochemical purity after different incubation periods. For the saline study, 200 μL of [18F]AlF-NOTA-QHY-04 (0.74–3.70 MBq) was incubated at 37°C with 800 μL of saline for 1 h, 3 h and 6 h respectively, and then directly evaluated by radio -HPLC. […]

On the set-up of data set [2]: species or system mice. The following applies: mouse, in vivo. As to the method: The xenografted mice were injected with [^18F]AlF-NOTA-QHY-04 (3.70 ± 0.74 MBq) in about 150 μL saline via the tail vein. All the PET scans were performed with micro-PET/CT (IRIS PET/CT, Inviscan, France) and the radioactivity were expressed as %ID/mL. Detailed procedures for dynamic, static imaging and blocking studies are provided in the supplemental materials. Biodistribution studies were conducted using mice with xenografted A549/CXCR4 tumors with and without blocking (n = 3). The mice were sacrificed immediately after static PET/CT 1 h post injection (p.i.), then the tumors and organs were quickly collected, weighed and counted for radioactivity by a γ-counter. The γ-counter activity readings were background- and decay-corrected and represented as the percentage of injected dose per gram of tissue (%ID/g).

SMILES strings stand for the structures. Bridge positions count the residues as written; N and C are the ends. Square brackets hold non-standard residues; d marks the D form. Peptide text beside a SMILES is read from it. * marks the point of attachment. NOTA = O=C(O)CN1CCN(CC(=O)O)CCN(CC(=O)*)CC1; 2Nal = N[C@@H](Cc1ccc2ccccc2c1)C(=O)O; Pen = CC(C)(S)[C@H](N)C(=O)O; 4Amb = NCc1ccc(C(=O)O)cc1; Ahx = NCCCCCC(=O)O

As for `C[C@H](NC(=O)[C@H](CCCNC(=N)N)NC(=O)CCCCCNC(=O)c1ccc(CNC(=O)CN2CCN(CC(=O)O)CCN(CC(=O)O)CC2)cc1)C(=O)N[C@@H]1CSSC(C)(C)[C@@H](C(=O)O)NC(=O)[C@H](Cc2c[nH]cn2)NC(=O)[C@H](Cc2ccc3ccccc3c2)NC(=O)[C@H](CCCNC(=N)N)NC1=O` [[^18F]AlF-NOTA-QHY-04] ({NOTA-4Amb-Ahx}-RA[dC]R[2Nal]H[Pen]-OH; disulfide 3-7), the “radiochemical purity after incubation in 5% human serum albumin solution” value in data set [1] was “above 95%”. Moreover, in data set [2], the “Tumor-to-organ ratio T/Blood” value is on record as 3.63 ± 0.56, the “Tumor-to-organ ratio T/Heart” value was determined as 7.77 ± 0.60, the “Tumor-to-organ ratio T/Kidney” value is on record as 0.23 ± 0.05 and the “Tumor-to-organ ratio T/Liver” value is reported as 1.84 ± 0.17. Further, the “Tumor-to-organ ratio T/Muscle” value in data set [2] worked out at 10.94 ± 5.33.

The record behind these values is article PMC11488100, “PET imaging of CXCR4 expression using [^18F]AlF-NOTA-QHY-04 for hematologic malignancy and solid tumors” (Theranostics, 2024).
